This note sets out measurements from patent publication US9938510B2, “Photobacterium sp. alpha-2-6-sialyltransferase variants” (The Regents of the University of California, priority 2014, dated 2018).

Residue numbers refer to the chain shown, from its start. Names and notes keep the numbering of the source.

A short description of series [1]: Expression and Ni2+-NTA purification of soluble recombinant protein; SDS-PAGE of lysates. More on the design: species or system Escherichia coli. The following applies: for expression level, purified by Ni2+-NTA column: per liter of Escherichia coli culture, repeated expression in duplicates or triplicates. As for the experimental part: The plasmids containing mutant genes were transformed into Escherichia coli BL21 (DE3). The Escherichia coli cells were cultured in LB-rich media (10 g L^−1 tryptone, 5 g L^−1 yeast extract, and 10 g L^−1 NaCl) supplemented with ampicillin (100 μg mL^−1). Overexpression of the mutants was achieved by adding 0.3 mM of isopropyl-1-thio-β-D-galactopyranoside (IPTG) to the Escherichia coli culture when its OD600 nm reached 0.8. The induced culture was incubated at 20° C. for 20 h with vigorous shaking at 250 rpm in a C25KC incubator shaker (New Brunswick Scientific, Edison, N.J.). His6-tagged mutant proteins were purified from the cell lysate. To obtain cell lysate, the cell pellet harvested by centrifugation at 4000 rpm for 2 h was resuspended in 20 mL (for cells obtained from one liter culture) of lysis buffer (pH 8.0, 100 mM Tris-HCl containing 0.1% Triton X-100). Lysozyme (50 μg mL^−1) and DNaseI (3 μg mL^−1) were added to the resuspended cells followed by shaking at 37° C. for 60 min. The lysate was obtained as the supernatant after centrifugation at 11,000 rpm for 20 min. Purification of His6-tagged proteins from the lysate was achieved using 10 mL column packed with Ni^2+-NTA agarose. The column was pre-equilibrated with 8 column volumes of binding buffer (5 mM imidazole, 0.5 M NaCl, 50 mM Tris-HCl pH 7.5). After loading the sample, the column was washed with 8 column volumes of the binding and 8 column volumes of washing buffer (20 mM imidazole, 0.5 M NaCl, 50 mM Tris-HCl pH 7.5). Protein was eluted using 8 column volumes of the elute buffer (200 mM imidazole, 0.5 M NaCl, 50 mM Tris-HCl pH 7.5). The fractions containing the purified enzyme were collected and stored at 4° C. Protein concentrations were quantified by bicinchoninic acid (BCA) protein assay kit according to manufacturer's instruction using bovine serum albumin (BSA) as the protein standard. The wild-type enzyme and A366G mutant were expressed, purified, and quantified in duplicates or triplets for at least three times. […]

Series [2] is described as follows: One-pot two-enzyme (OP2E) sialylation with NmCSS, GalNAcαSer as acceptor. Format: biochemical. The following applies: 1 equivalent of Neu5Ac and 1.5 equivalents of CTP. From the text:
(§1) White bars: GalNAcαSer was used as an acceptor with 1 equivalent of Neu5Ac and 1.5 equivalents of CTP. Grey bars: GalNAcαSer was used as an acceptor with 2.5 equivalents of Neu5Ac and 5.0 equivalents of CTP. Black bars: GalNAcαThr was used as an acceptor with 2.5 equivalents of Neu5Ac and 5.0 equivalents of CTP.
In this system, CTP and Neu5Ac were used by NmCSS for the formation of CMP-Neu5Ac in situ (see also, Yu and Chen, et al. Bioorg. Med. Chem. 2004, 12, 6427-6435). CMP-Neu5Ac was used as the donor substrate for Psp26ST(15-501)-His6 or its mutants. […] For example, using 1 equivalent of Neu5Ac and 1.5 equivalents of CTP in the one-pot two-enzyme (OP2E) reaction (white bars in FIG. 6) improved the GalNAcαSer α2-6-sialylation reaction yields from less than 6% (1 equivalent CMP-Neu5Ac was used) (FIG. 5B) to 32-51% for W365A, W365G, W365S mutants. Similarly, the OP2E reaction improved the GalNAcαSer α2-6-sialylation reaction yields from 40% and 37% to 75% and 67% for A366G mutant and the wild-type enzyme, respectively. Increasing the concentrations of Neu5Ac and CTP to 2.5 and 5.0 equivalents further improved the reaction yields to more than 67% for Psp26ST(15-501)-His6 and its mutants (black bars in FIG. 6). […]

Series [3] is described as follows: Sialyltransferase activity assay, GalNAcαSer as acceptor (HPLC). Format: biochemical. The following applies: 1 equivalent CMP-Neu5Ac was used; no NmCSS. As for the experimental part: When LacβMU was used as an acceptor, the assay was performed in duplicate in 10 μL of Tris-HCl buffer (100 mM, pH 8.0) containing CMP-Neu5Ac (1 mM), LacβMU (1 mM), MgCl2 (20 mM), wild-type Psp2,6ST(15-501)-His6 or its mutant (0.3 μM). When an α-GalNAc-terminated acceptor was used, the assay was performed in duplicate in 10 μL of Tris-HCl buffer (100 mM, pH 8.0 for GalNAcαSer/Thr) or NaOAc-HOAc (100 mM, […]), MgCl2 (20 mM), wild-type Psp2,6ST(15-501)-His6 or its mutant (3.0 μM). Reactions were allowed to proceed at 20° C. for 20 min and stopped by adding 10 μL of cold ethanol. The analysis of sialylated product conversion was performed using the HPLC system as described above for sialyltransferase activity assay. The 4-methylumbelliferone (MU)-labeled fluorescent acceptor and the product formed were detected with excitation at 325 nm and emission at 372 nm. The 2-aminobenzoic acid (2AA)-labeled fluorescent acceptors and the products formed were detected with excitation at 315 nm and emission at 400 nm. The 9-fluorenylmethylcarbamate (Fmoc)-labeled fluorescent acceptors and the products formed were detected with excitation at 262 nm and emission at 313 nm.

The nature of series [4]: One-pot two-enzyme (OP2E) sialylation with NmCSS, GalNAcαThr as acceptor. In kind it is biochemical. The following applies: 2.5 equivalents of Neu5Ac and 5.0 equivalents of CTP.
From the text: as §1
In this system, CTP and Neu5Ac were used by NmCSS for the formation of CMP-Neu5Ac in situ (see also, Yu and Chen, et al. Bioorg. Med. Chem. 2004, 12, 6427-6435). CMP-Neu5Ac was used as the donor substrate for Psp26ST(15-501)-His6 or its mutants. […] For example, using 1 equivalent of Neu5Ac and 1.5 equivalents of CTP in the one-pot two-enzyme (OP2E) reaction (white bars in FIG. 6) improved the GalNAcαSer α2-6-sialylation reaction yields from less than 6% (1 equivalent CMP-Neu5Ac was used) (FIG. 5B) to 32-51% for W365A, W365G, W365S mutants. Similarly, the OP2E reaction improved the GalNAcαSer α2-6-sialylation reaction yields from 40% and 37% to 75% and 67% for A366G mutant and the wild-type enzyme, respectively. Increasing the concentrations of Neu5Ac and CTP to 2.5 and 5.0 equivalents further improved the reaction yields to more than 67% for Psp26ST(15-501)-His6 and its mutants ([…]). […] Therefore, in situ generation of CMP-Neu5Ac, the sugar nucleotide donor for sialyltransferases, was proven an efficient method to enhance the yields for sialylation reactions catalyzed not only by the wild-type enzymes but also sialyltransferase mutants.

B1: Psp26ST(15-501)-His6: recombinant Photobacterium sp. JH-ISH-224 α2-6-sialyltransferase, residues 15-501, C-terminal His6, wild-type; SEQ ID NO: 23 (protein)
chain: CNNSEENTQSIIKNDINKTIIDEEYVNLEPINQSNISFTKHSWVQTCGTQQLLTEQNKESISLSVVAPRLDDDEKYCFDFNGVSNKGEKYITKVTLNVVAPSLEVYVDHASLPTLQQLMDIIKSEEENPTAQRYIAWGRIVPTDEQMKELNITSFALINNHTPADLVQEIVKQAQTKHRLNVKLSSNTAHSFDNLVPILKELNSFNNVTVTNIDLYDDGSAEYVNLYNWRDTLNKTDNLKIGKDYLEDVINGINEDTSNTGTSSVYNWQKLYPANYHFLRKDYLTLEPSLHELRDYIGDSLKQMQWDGFKKFNSKQQELFLSIVNFDKQKLQNEYNSSNLPNFVFTGTTVWAGNHEREYYAKQQINVINNAINESSPHYLGNSYDLFFKGHPGGGIINTLIMQNYPSMVDIPSKISFEVLMMTDMLPDAVAGIASSLYFTIPAEKIKFIVFTSTETITDRETALRSPLVQVMIKLGIVKEENVLFWA
modifications: C-terminal His6; Synthetic Psp26ST(15-501) WILD TYPE
As for B1, the “expression level, purified by Ni2+-NTA column” value in series [1] is reported as 18-40 mg per liter. The “GalNAcαSer α2-6-sialylation reaction yield, OP2E” value in series [2] is 67%. Besides, the “GalNAcαSer α2-6-sialylation reaction yield, sialyltransferase alone (FIG. 5B)” value in series [3] is 37%. In series [4], the “yield of Neu5Acα2-6GalNAcαThr from GalNAcαThr, OP2E” value is on record as 88%.

B2: A366G: Photobacterium sp. JH-ISH-224 α2-6-sialyltransferase residues 15-501, A366G point mutation, C-terminal His6; SEQ ID NO: 2 (protein)
chain: B1 chain with A352G
modifications: C-terminal His6; Synthetic Psp26ST(15-501) A366G
Take B2: the expression level in series [1] (general description) is 72 to 110 mg/L. Besides, the “expression level, purified by Ni2+-NTA column” value in series [1] is 72-110 mg per liter. Besides, the “GalNAcαSer α2-6-sialylation reaction yield, OP2E” value in series [2] is recorded as 75%. Further, the “GalNAcαSer α2-6-sialylation reaction yield, sialyltransferase alone (FIG. 5B)” value in series [3] is given as 40%. Besides, the “yield of Neu5Acα2-6GalNAcαThr from GalNAcαThr, OP2E” value in series [4] was found to be 93%.
